Assay results from US20260158160A1 (MACFARLANE BURNET INSTITUTE FOR MEDICAL RESEARCH AND PUBLIC …, published 2026).
Numbering of substitutions follows the chain as printed. Several values for one entry are separate records, joined by “and”; a condition that tells them apart may be missing. Equal entries are not always repeated. Where two headings read alike, the source gives them in different places.

B1: EflACE2-Fc-H429Y (Fc fusion)
chain: ETGSTIEEQAKYFLDKFNHEAEDLFYQSSLASWNYNTNITEENVQNMNNAGDKWSAFLKEQSTTAQMYPLQEIQNLTVKLQLQALQQNGSSVLSEDKSKRLNTILNTMSTIYSTGKVCNPDNPQECLLLEPGLNEIMANSLDYNERLWAWESWRSEVGKQLRPLYEEYVVLKNEMARANHYEDYGDYWRGDYEVNGVDGYDYSRGQLIEDVEHTFEEIKPLYEHLHAYVRAKLMNAYPSYISPIGCLPAHLLGDMWGRFWTNLYSLTVPFGQKPNIDVTDAMVDQAWDAQRIFKEAEKFFVSVGLPNMTQGFWEYSMLTDPGNVQKAVCHPTAWDLGKGDFRILMCTKVTMDDFLTAHHEMGHIQYDMAYAAQPFLLRNGANEGFHEAVGEIMSLSAATPKHLKSIGLLSPDFQEDNETEINFLLKQALTIVGTLPFTYMLEKWRWMVFKGEIPKDQWMKKWWEMKREIVGVVEPVPHDETYCDPASLFHVSNDYSFIRYYTRTLYQFQFQEALCQAAKHEGPLHKCDISNSTEAGQKLFNMLRLGKSEPWTLALENVVGAKNMNVRPLLNYFEPLFTWLKDQNKNSFVGWSTDWSPYADQSIKVRISLKSALGDRAYEWNDNEMYLFRSSVAYAMRQYFLKVKNQMILFGEEDVRVANLKPRISFNFFVTAPKNVSDIIPRTEVEKAIRMSRSRINDAFRLNDNSLEFLGIQPTLGPPNQPPVSGGGGSTHTCPPCPAPELLGGPSVFLFPPKPKDTLMISRTPEVTCVVVDVSHEDPEVKFNWYVDGVEVHNAKTKPREEQYNSTYRVVSVLTVLHQDWLNGKEYKCKVSNKALPAPIEKTISKAKGQPREPQVYTLPPSREEMTKNQVSLTCLVKGFYPSDIAVEWESNGQPENNYKTTPPVLDSDGSFFLYSKLTVDKSRWQQGNVFSCSVMYEALHNHYTQKSLSLSPGK
notes: also called EflACE2-Fc-H429Yoli; Yoli
B2: EflACE2-Fc-H429F (Fc fusion)
chain: B1 chain with Y937F
notes: also called EflACE2-Fc F

Legend:
SARS-CoV-2 RBD-Ig [1] = biological target: T1, SARS-CoV-2 RBD-Ig (SARS-CoV-2; mouse, UniProt P0DTC2 319-541)
[2] = biological target: SARS-CoV-2 spike protein on virus (CoV/Australia/VIC01/2020) (SARS-CoV-2, UniProt P0DTC2 14-1273); experiment: cell-based or functional assay
SARS-CoV-2 RBD-Ig [3] = biological target: T1, SARS-CoV-2 RBD-Ig; experiment: ELISA: ACE2-Fc titrated on immobilised RBD-Ig (A450), curve fit
[4] = biological target: SARS-CoV-2 spike protein expressed on Ramos-S cells (SARS-CoV-2, UniProt P0DTC2 14-1273)

Binder | EC50 (SARS-CoV-2 RBD-Ig [1]) | fold of neutralisation activity over unfused trACE2 [2] [fold] | EC50 (SARS-CoV-2 RBD-Ig [3]) [nM] | EC50 [4] [nM]
B1 | 0.38 nM and 0.6 nM | > 600 | – | –
B2 | – | – | 0.21 | 2.1
